Publication PMC6995612

Target: Firefly Luciferase, heat-aggregated [luciferase: P08659]
Assay: co-sedimentation; 1.5 μM ClpG-DWB with 2 μM aggregated Luciferase in buffer A (50 mM Tris pH 7.5, 50 mM KCl, 10 mM MgCl2, 2 mM DTT), 2 mM ATP, 25 °C, 10 min; 1 μM DnaK with 0.2 μM DnaJ added to selected reactions; centrifugation at 13,000 rpm, pellet washed once; SDS-PAGE, Coomassie, ImageJ; control without aggregated Luciferase

Substance: P. aeruginosa ClpGGI-E383A/E732A (enzyme)
- fold reduction of binding on addition of DnaK (with DnaJ): 1.86 fold
